From patent US12049482B2, “Molecular switch-mediated control of engineered cells” (THE GENERAL HOSPITAL CORPORATION, priority 2017, dated 2024) come the findings set out here.

The subject of test [1] is CRBN. The experiment in a line: Internalization and degradation of CD28-degron-GFP in 293T cells. It counts as cell-based, human. The note with it: 10 μM pomalidomide, 293T cells with biallelic CRBN exon 5 disruption. The method, then:
Transduced cells were incubated with a range of Pomalidomide concentrations or DMSO for 20 hours. Cells were analyzed by flow cytometry for eGFP and mCherry fluorescence. 1000 mCherry+ cells were analyzed per sample, and the geometric mean of the per-cell eGFP/mCherry ratio was calculated in Flowjo. In Pomalidomide dose titration studies, the EC50 was calculated by non-linear regression in Prism. Experiments were performed in triplicate. In some cases cell surface protein expression was assayed in parallel with the above reporter assay; cells were stained with anti-CD28-BV421 antibody (BD Biosciences 562613) at a 1:50 dilution in FACS buffer (PBS+2% FCS+2 mM EDTA) for 10 minutes on ice. Cells were washed with FACS buffer and analyzed by flow cytometry.

Test [2] addresses CRBN (Homo sapiens, UniProt Q96SW2). The experiment in a line: EGFP/mCherry reporter of zinc finger degron sequences, IMiD titration. It counts as cell-based. Further details: endogenous in cells. The note with it: HEK239T cells, drug titration, 20 h. The method, then: A hybrid sequence of two distinct CRBN substrates, IKZF3 and ZFP91, was constructed and examined for activity within an “OFF-switch” system of the instant disclosure. In such experiments, reporter constructs containing zinc finger sequences were expressed in HEK239T cells via lentiviral transduction, after which the cells were treated with a titration of (IMiD) drug concentrations for 20 h. Flow cytometry was used to measure the EGFP/mCherry ratio normalized to the average of three DMSO treated controls. Data shown in FIG. 10 are representative of two experimental replicates (technical replicates=0, experimental replications=2).

For test [3], the system named is CD19scFv-CD28-IKZF3. The experiment in a line: BRET, split receptor: membrane-tethered or untethered minCRBN3 paired with CD19scFv-CD28-IKZF3. The note with it: 293T cells, 10 μM MG132, 2 hours of drug treatment. It counts as cell-based, human. As to the method:
(§1) 293T cells were co-transfected with pFC14K and pFC32K plasmids expressing IKZF3-HaloTag and CRBN-Nanoluciferase fusion proteins and incubated overnight. Cells were then trypsinized and seeded into 96 well plates, at 40,000 cells per well. The BRET assay was performed per manufacturer's instructions (Promega™). In brief, cells were incubated for 2 hours with varying concentrations of Pomalidomide or DMSO, 10 μM MG132, and 100 nM HaloTag NanoBRET 618 Ligand. NanoBRET Nano-Glo substrate was added and donor (460 nm) and acceptor (618 nm) emission were measured within 10 minutes (EnVision, Perkin Elmer). Mean corrected milliBRET units (mBU) was calculated.
Specific minCRBN-presenting polypeptide tethers to the plasma membrane that were tested included: (1) a CD8/CD28 system in which about 36 amino acids of TMD and cytosolic sequence connected to the co-stimulatory/minCRBN domains of the thereby membrane-tethered polypeptide; (2) a PD1 Y F ITAM/ITSM construct, in which minCRBN was tethered to the plasma membrane via a TMD and cytosolic domain of approximately 100 amino acids in length; and (3) a LYN-CD28 construct, in which membrane tethering was achieved via myristoyl/palmitoylation.

In test [4] the test system is IKZF3aa130-189. The experiment in a line: BRET assay, dimerization of IKZF3aa130-189 with CRBN or minCRBN variants. It counts as cell-based, human. The note with it: pomalidomide dose-response. As to the method:
Specifically, CRBN deletion variants were engineered to retain binding to Pom/IKZF3 but not DDB1/CUL4. Four deletion variants were generated in CRBN that removed the DDB1-binding domain, as shown in the middle image (NTD is the N-terminal domain; LLP1 is Lon-like protease domain 1 (split into LLP1-N and LLP1-C regions); TBD is the Thalidomide binding domain). At middle, BRET assays were performed upon 293T cells harboring bialleleic CRISPR/Cas9 disruption of endogenous CRBN (293T-CRBNΔe5), to assess dimerization between IKZF3aa130-189 and CRBN or minCRBN variants (dose-response data shown are CRBN, minCRBN1, minCRBN2, minCRBN3 and minCRBN4). […] Pomalidomide-dependent dimerization was observed between IKZF3aa130-189-HaloTag and CRBN-Nanoluciferase (NLuc) or minCRBN2-4-NLuc. […] 1 day after transfection, cells were exposed to 1 μM pomalidomide for the number of hours indicated and GFP and mCherry fluorescence was measured by flow cytometry (eGFPmCherry levels were detected as 0.5 or less for the CRBN trace).
as §1
Tested forms of minimal CRBN included minCRBN1, minCRBN2, minCRBN3 and minCRBN4, each of which were aligned against the wild-type CRBN (FIG. 1; all tested minCRBNs lacked the DDB1-binding domain—minCRBN1 comprised amino acids 339-442 of CRBN (including the TBD); minCRBN2 comprised amino acids 317-442 of CRBN (including TBD and an N-terminal extended sequence relative to minCRBN1); minCRBN3 included all CRBN sequence other than amino acids 194-207 (deletion of the DDB1-binding domain); and minCRBN4 included all sequences other than amino acids 187-260 (deletion of the DDB1-binding domain)).
In general terms: In BRET a luciferase serves as donor, and the signal depends on an acceptor being close.

Chain of CRBN (Homo sapiens, UniProt Q96SW2) (Q96SW2 whole entry): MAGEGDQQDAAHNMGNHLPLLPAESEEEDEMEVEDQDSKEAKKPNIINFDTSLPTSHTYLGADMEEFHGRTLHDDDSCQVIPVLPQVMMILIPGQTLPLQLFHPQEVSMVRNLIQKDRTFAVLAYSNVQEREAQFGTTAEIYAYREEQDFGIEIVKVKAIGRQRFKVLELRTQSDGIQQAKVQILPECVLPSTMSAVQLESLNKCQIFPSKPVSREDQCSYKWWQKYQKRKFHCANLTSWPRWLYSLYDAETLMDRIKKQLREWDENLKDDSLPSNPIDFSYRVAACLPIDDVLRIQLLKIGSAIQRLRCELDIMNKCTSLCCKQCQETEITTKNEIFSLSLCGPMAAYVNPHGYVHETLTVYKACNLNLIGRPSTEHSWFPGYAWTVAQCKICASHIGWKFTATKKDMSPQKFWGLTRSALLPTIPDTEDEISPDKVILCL
Chain of IKZF3aa130-189 (Q9UKT9 130-189 limits assumed, one chain of several): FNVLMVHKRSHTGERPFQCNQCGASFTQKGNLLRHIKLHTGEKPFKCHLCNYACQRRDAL
Chain of CD19scFv-CD28-IKZF3 (as listed by the source, one chain of several): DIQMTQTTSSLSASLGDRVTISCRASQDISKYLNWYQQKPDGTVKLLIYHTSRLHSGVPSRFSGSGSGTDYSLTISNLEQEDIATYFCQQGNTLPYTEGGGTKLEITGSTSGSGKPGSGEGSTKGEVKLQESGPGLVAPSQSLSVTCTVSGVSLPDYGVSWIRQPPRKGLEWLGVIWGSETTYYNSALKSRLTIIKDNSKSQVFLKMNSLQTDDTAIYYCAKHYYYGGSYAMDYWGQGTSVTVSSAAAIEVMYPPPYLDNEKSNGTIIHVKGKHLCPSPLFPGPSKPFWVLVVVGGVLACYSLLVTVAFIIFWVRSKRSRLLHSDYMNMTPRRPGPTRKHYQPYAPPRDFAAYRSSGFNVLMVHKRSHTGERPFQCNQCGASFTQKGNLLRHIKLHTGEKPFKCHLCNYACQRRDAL

In the case of “CD28-degron: In frame fusion of full length CD28, a SG linker, and IKZF3 (amino acids 130-189); SEQ ID NO: 82”, the “degradation (normalized GFP levels)” value in test [1] is “no significant decline in normalized GFP levels”. For the molecule “IKZF3/ZFP91: Reverse hybrid, IKZF3 amino acids 146-156 + ZFP91 amino acids 411-422, SEQ ID NO: 33 (FQCNQCGASFTQKASLNWHMKKH)”, in test [2], the “IMiD sensitivity (EGFP/mCherry ratio normalized to DMSO)” value is on record as “minimal IMiD sensitivity/responsiveness”. Consider “ZFP91/IKZF3 hybrid: ZFP91 amino acids 400-410 + IKZF3 amino acids 157-168, SEQ ID NO: 32 (LQCEICGFTCRQKGNLLRHIKLH)”, for which the “IMiD sensitivity (EGFP/mCherry ratio normalized to DMSO)” value in test [2] is given as “greater IMiD sensitivity than either the ZFP91 degron sequence alone or the IKZF3 degron sequence alone”.

B1: minCRBN3: All CRBN sequence other than amino acids 194-207 (deletion of the DDB1-binding domain), SEQ ID NO: 3 (protein)
chain: AGEGDQQDAAHNMGNHLPLLPESEEEDEMEVEDQDSKEAKKPNIINFDTSLPTSHTYLGADMEEFHGRTLHDDDSCQVIPVLPQVMMILIPGQTLPLQLFHPQEVSMVRNLIQKDRTFAVLAYSNVQEREAQFGTTAEIYAYREEQDFGIEIVKVKAIGRQRFKVLELRTQSDGIQQAKVQILPECVLPSTYDAETLMDRIKKQLREWDENLKDDSLPSNPIDFSYRVAACLPIDDVLRIQLLKIGSAIQRLRCELDIMNKCTSLCCKQCQETEITTKNEIFSLSLCGPMAAYVNPHGYVHETLTVYKACNLNLIGRPSTEHSWFPGYAWTVAQCKICASHIGWKFTATKKDMSPQKFWGLTRSALLPTIPDTEDEISPDKVILCL
Regarding B1, the “pomalidomide-dependent interaction with IKZF3 degron split receptor (BRET)” value in test [3] is “to a significantly lesser extent than any of the various plasma membrane-tethered versions”. Besides, the “pomalidomide-dependent dimerization with IKZF3 degron (mBU)” value in test [4] is recorded as “pomalidomide-dependent interactions”.
